Molecular target: T1, Recombinant human IgG1 Fc (R&D systems) (human, UniProt P01857-1 100-330 = IgG part)
T1 construct: domain: Fc; Negative control surface in the Biacore experiment; also called hIgG1-Fc
Experiment: SPR (Biacore T200)

- binding result: no binding (tested: 5-175 nM)
B1: Recombinant human laminin-α4 (R&D systems) (ligand, UniProt Q16363-2 826-1816, looked up)
chain: QVSMMFDGQSAVEVHSRTSMDDLKAFTSLSLYMKPPVKRPELTETADQFILYLGSKNAKKEYMGLAIKNDNLVYVYNLGTKDVEIPLDSKPVSSWPAYFSIVKIERVGKHGKVFLTVPSLSSTAEEKFIKKGEFSGDDSLLDLDPEDTVFYVGGVPSNFKLPTSLNLPGFVGCLELATLNNDVISLYNFKHIYNMDPSTSVPCARDKLAFTQSRAASYFFDGSGYAVVRDITRRGKFGQVTRFDIEVRTPADNGLILLMVNGSMFFRLEMRNGYLHVFYDFGFSGGPVHLEDTLKKAQINDAKYHEISIIYHNDKKMILVVDRRHVKSMDNEKMKIPFTDIYIGGAPPEILQSRALRAHLPLDINFRGCMKGFQFQKKDFNLLEQTETLGVGYGCPEDSLISRRAYFNGQSFIASIQKISFFDGFEGGFNFRTLQPNGLLFYYASGSDVFSISLDNGTVIMDVKGIKVQSVDKQYNDGLSHFVISSVSPTRYELIVDKSRVGSKNPTKGKIEQTQASEKKFYFGGSPISAQYANFTGCISNAYFTRVDRDVEVEDFQRYTEKVHTSLYECPIESSPLFLLHKKGKNLSKPKASQNKKGGKSKDAPSWDPVALKLPERNTPRNSHCHLSNSPRAIEHAYQYGGTANSRQEFEHLKGDFGAKSQFSIRLRTRSSHGMIFYVSDQEENDFMTLFLAHGRLVYMFNVGHKKLKIRSQEKYNDGLWHDVIFIRERSSGRLVIDGLRVLEESLPPTEATWKIKGPIYLGGVAPGKAVKNVQINSIYSFSGCLSNLQLNGASITSASQTFSVTPCFEGPMETGTYFSTEGGYVVLDESFNIGLKFEIAFEVRPRSSSGTLVHGHSVNGEYLNVHMKNGQVIVKVNNGIRDFSTSVTPKQSLCDGRWHRITVIRDSNVVQLDVDSEVNHVVGPLNPKPIDHREPVFVGGVPESLLTPRLAPSKPFTGCIRHFVIDGHPVSFSKAALVSGAVSINSCPAA
notes: also called laminin 4A chain; laminin A4 (α4) chain

— patent publication US20140314744A1 (NEOTOPE BIOSCIENCES, published 2014)
